Source: the DeepSol protein solubility set

Assay: soluble on expression in E. coli; label from the status in PepcDB or PDB records

Sequence | soluble on expression in E. coli
MGSDKIHHHHHHMKHTLLIKDWLYSFLSLWFPRCCVVCGGSLAKGEECICTMCNINLPRTDYHLRKDNPVEKLFWGKFPLERATSFFFYRKGSDFRQVLHQLKYGGQKEIGAIMGRYMASELQASDFFHGVDVIIPIPLHKKKQQIRGYNQSEWISRGIMAVTGIPVDTEAIIRRKNTETQTQKSALERWENVDGIFELHRSEYLAGKHILIVDDVLTTGATTVACASRLAEIEGVRISVLTLAMAE | not soluble
SNAMTMKVGFIGLGIMGKPMSKNLLKAGYSLVVSDRNPEAIADVIAAGAETASTAKAIAEQCDVIITMLPNSPHVKEVALGENGIIEGAKPGTVLIDMSSIAPLASREISDALKAKGVEMLDAPVSGGEPKAIDGTLSVMVGGDKAIFDKYYDLMKAMAGSVVHTGDIGAGNVTKLANQVIVALNIAAMSEALTLATKAGVNPDLVYQAIRGGLAGSTVLDAKAPMVMDRNFKPGFRIDLHIKDLANALDTSHGVGAQLPLTAAVMEMMQALRADGHGNDDHSALACYYEKLAKVEVTR | soluble
MAMIGLVGKPNVGKSTMFNALTEKPAEIGNYPFTTIQPNKGIAYITSPCPCKELGVKCNPRNSKCIDGIRHIPVEVIDVAGLVPGAHEGRGMGNKFLDDLRQADAFILVVDASGKTDAEGNPTENYDPVEDVKFLLNEIDMWIYSILTKNWDKLARRAQQEKNIVKALKDQLSGLNIDEDDIKMAIRDMDESPIKWTEEDLLNLAKKLRKISKPMIIAANKADHPDAEKNIERLKKEFKDYIVIPTSAEIELALKRAEKAGIIKRKENDFEIIDESKVNEQMRRAFDYIKDFLKKYGGTGVQECINKAYFDLLDMIVVYPVEDENKFSDKQGNVLPDAFLVKKGSTARDLAYKVHTELGEKFIYAIDAKKKIRVGADYELKHNDIIKIVSAAK | soluble
MGSDKIHHHHHHMKSFRNIMGDSQNLDKRIQKIKQNVINDTDVKHFLEKNRSNITNEMIDEDLNVLQEYKDQQKVYDGHRYDDCPNFVKGHVPELYIENERIKIRYLPCPCKIKHDEERFDSQLITSHHMQRDTLHAKLKDIYMNNRERLDVAMAADQICTAITNDEKVKGLYLYGPFGTGKSFILGAIANQLKSQKISSTIVYLPEFIRTLKGGFKDGSFEKKLQRVREANILMLDDIGAEEVTPWVRDEVIGPLLHYRMVHELPTFFSSNFNYSELEHHLSITRDGTEKTKAARIIERIKTLSTPYYLTGKNFRNN | not soluble
SNQEPATILLIDDHPMLRTGVKQLISMAPDITVVGEASNGEQGIELAESLDPDLILLDLNMPGMNGLETLDKLREKSLSGRIVVFSVSNHEEDVVTALKRGADGYLLKDMEPEDLLKALHQAAAGEMVLSEALTPVLAASLRANRATTERDVNQLTPRERDILKLIAQGLPNKMIARRLDITESTVKVHVKHMLKKMKLKSRVEAAVWVHQERIF | soluble
METKFYNHQGGHLILYFAGWGTPPDAVNHLILPENHDLLICYDYQDLNLDFDFSAYRHIRLVAWSMGVWAAERALQGIRLKSATAVNGTGLPCDDNFGIPCTVFKGTLENLTENTRLKFERRMCGDKASFEDYQQFPARPFGEIHQELIALFAMIGQDRRTDLIRWTNALVGSGDKIFMPANQHRYWTPRCTVREIDVGHYLFSRFTHWSALWNH | not soluble
MGSDKIHHHHHHMTNVGRPIETHAITVGQGSDARSIAALVRAPAQDERPTCIWLGGYRSDMTGTKALEMDDLAASLGVGAIRFDYSGHGASGGAFRDGTISRWLEEALAVLDHFKPEKAILVGSSMGGWIALRLIQELKARHDNPTQVSGMVLIAPAPDFTSDLIEPLLGDRERAELAENGYFEEVSEYSPEPNIFTRALMEDGRANRVMAGMIDTGCPVHILQGMADPDVPYQHALKLVEHLPADDVVLTLVRDGDHRLSRPQDIDRMRNAIRAMIEPRP | not soluble
MSLKNLILAIESSCDDSSIAIIDKNTLECKFHKKISQELDHSIYGGVVPELAARLHSEALPKMLKQCKEHFKNLCAIAVTNEPGLSVSLLSGISMAKTLASALNLPLIPINHLKGHIYSLFLEEKISLDMGILLVSGGHTMVLYLKDDASLELLASTNDDSFGESFDKVAKMMNLGYPGGVIIENLAKNAKLKNISFNTPLKHSKELAFSFSGLKNAVRLEILKHENLNEDTKAEIAYAFENTACDHIMDKLEKIFNLYKFKNFGVVGGASANLNLRSRLQNLCQKYNANLKLAPLKFCSDNALMIARAAVDAYEKKEFVSVEEDILSPKNKNFSRIEGHHHHHH | soluble
MLKIGVITMALLSFLNAGWLGNLFDNTPTPYYTMPIDLSKTGNVAETDIRIDKEYRTGIALNYDFRRQKNKMTRNEYNNIKVFFGNSYTSGTAIPVKLKIEKIMDKNETTILNDIIIVDNNGGHELHSSLIKEIALSQGKYRIKVETTEDFSELSDLSVLVEIYYIRAPK | not soluble
MMHEKNIALLCDEADRLLQLNINLLRQMVDEPDVLSDSKNENGLLFDKRKALKRIEELEGEQIKTARREMVLAVVGTMKAGKSTTINAIVGQEILPNRNRPMTSVPTLIRHVPGKTEPVLHLEHIQPVRNLLITLQEKLATPAGQQVAQSLQQTGDTRELLDILADDVWLKNEYHGEDEIFTGLASLNDLVRLAAAMGTEFPFDEYAEVQKLPVIDVAFSHLVGMDACQGTLTLLDTPGPNEAGQPQMEMMMRDQLQKASAVLAVMDYTQMNSKADEEVRKELNAIADVSAGRLFVLVNKFDEKDRNGDGADAVRQKVPAMLNSDVLPASRVYPGSSRQAYLANRALHELRKNGALPVDEAWVDDFIREAFGPMVEEDDWKDSTKVNKKAEKLWNISLIDQLITEVIQSSHSRAAALAVDSAAAKLMQNAENVSEYLSLRHQGLQQSIQSLQAHITSLLADIQEIEECQNQVTGDVRMAMEDINTKTGELLTKVCASLEEELNDYFRSGKRKEQQMLEEENSAQPRERNAFAFFHDIFGTGNQHDRMRDFDPDSPEIKFSDRRAALELMTQIESTVTSLHREAEAQFRPELEKIVSGIETGFRGTALYATENIAGRINARLEDEGFTVKISFPAVSQLQTRLAVKINLSALMEERTETVTRRRRQSGVWGTVCRWFGTSDLGWENYDEDVSRSVININKAREEVMSLTRAYFGELQASIEQDINQPVRQEIDAFFCAFREKVEQLRNTLIQSSEDHKRDQQAQERLTGRLQALNERVPELITDSKALREELETML | not soluble
MGSDKIHHHHHHLTDAEIDASFNPYQAGPTTSPGITPGMKIDKSNAQKFRDIIDPATYALIEQGKLEFPVEETHSIALHPNYIAATKKHSSQVKLGSATGTIEGYVAGRPFPGKPDKSDPRAGEKLAFNYKYAQIVGDSGRIYPFIWQYKDARSGKVERQLEFDFNFLSFKHRTTQLPTADIEPNPSKFYRGIYLKVLSPQDLKNTQLLIQRFDDDTKLDDSYLYLGFQRRVRRLATGQTTDSFLGSDLMIEDFEGYNGRVPDMDWKYVETKVMLLPVYRHSEWKKTEPRDQMGYGQVQFDGQAQCFQNIPWSLRVVHVIEGVPVESRNPIGKRILYMDAQTSIFPIINMYDRKGALWKRWAIGFSDSAYHAPANQAAGIAIYTSASMLDVQAQHCTTLQLRMISDPALSPPSIFSVQNLRGGD | not soluble
TALADVVITGYQTLSKERATGSFDKVDSSVLSSRPTADLSTALQGLVAGMQATEKEDGSIDFLIRGSSSLYADKKPLLVVDGFPIQGDFSSINPNDVESVTVLKDAAAASIWGARSANGVIVVTTKKGKKDK | not soluble
MLEADDQGCIEEQGVEDSANEDSVDAKPDRSSFVPSLFSKKKKNVTMRSIKTTRDRVPTYQYNMNFEKLGKCIIINNKNFDKVTGMGVRNGTDKDAEALFKCFRSLGFDVIVYNDCSCAKMQDLLKKASEEDHTNAACFACILLSHGEENVIYGKDGVTPIKDLTAHFRGDRSKTLLEKPKLFFIQACRGTELDDGIQADSGPINDTDANPRYKIPVEADFLFAYSTVPGYYSWRSPGRGSWFVQALCSILEEHGKDLEIMQILTRVNDRVARHFESQSDDPHFHEKKQIPCVVSMLTKELYFSQ | soluble
MSELRILRAVDYPRMPWKNGAGSTEEIARDGGDGLDGFGWRLSIADVGESGGFSGFAGYQRIISVLEGGGMRLRVDGAESAPLRARQAFAFSGDSEVHCTLLDGAIRDFNLIYAPRRHRARLQWLRVEGELDWHGTASTLLLFAQQDGVAISLQGQPRGQLAAHDCLCAEGLQGLQHWRLTAHEPAWVCAVELDSL | soluble
